# Results as given in PMC6908968 (Cell, 2019).
# Positions count from the first letter of the chain named.
# T1: thermolysin-cleaved EBOV GP on Jurkat-GP cells (cleaved GP) (Zaire ebolavirus, Makona (GP1 core …, strain))
# T1 chain 1: not shown
# T1 chain 2: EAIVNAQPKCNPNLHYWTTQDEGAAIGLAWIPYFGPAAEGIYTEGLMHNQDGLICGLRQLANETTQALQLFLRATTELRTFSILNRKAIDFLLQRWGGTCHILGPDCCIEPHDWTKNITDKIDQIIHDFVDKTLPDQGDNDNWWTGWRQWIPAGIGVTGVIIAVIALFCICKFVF
# B1: 15.0.c778 (antibody, V domains shown)
# VH: QVQLHESGPGVVKVSETLSLTCTLSGGSINGNSWSWIRQTAGKGLEWIGRVYTSGSPNYNPSLKSRLTMSIVTSKNQFSLTLRSVTAADTAIYYCARDFVVIDPTRVVDDYDAFDVWGRGTVVTVSS
# VL: DIQLTQSPSILSASVGDRVTITCRASQSVSRYLAWYQQKPGNAPKLLIYKVSTLQSGVPSRFSGSASGTEFTLTINSLQPDDFATYYCHQYNGYLYTFGQGTKVDVK
# B2: 15.0.c779 (antibody, V domains shown)
# VH: EVQMVESGGGLVKPGGSLRLSCAASGFIFSNAWMSWVRQAPGKGLEWVGRIKGKTDGGTTDYAAPVKGRVTISRDDSKNTLFLQMNSLKTEDTAVYFCTADVLPAATRGVYYYYYYMDVWGKGTTVTVSS
# VL: QSALTQPASVSGSPGQSITISCTGTSSDVGGYNYVSWYQQHPGKAPKLMIYDVSKRPSGVSNRFSGSKSGNTASLTISGLQAEDEADYYCCSYTGRSTVVFGGGTTLTVL
# B3: 15.0.c780 (antibody, V domains shown)
# VH: EVQLVESGGGLVKPGGSLRLSCAASGFTFSNAWMSWVRQAPGKGLEWVGRIKGKTDGGTTDYAAPVRGRFTISRDDSKNMLYLQMNSLKTEDTAIYYCTADVIPAATRGVYYYYYYMDVWGEGTTVAVSS
# VL: B2 VL with V60L, T94A, G95R, R96S, T106K, L107V
# B4: 15.0.c792 (antibody, V domains shown)
# VH: EVQLVESGGGLVQPGGSLRLSCAASGFTFSSYSMNWVRQAPGKGLEWVSYISSSSSTIYYADSVKGRFTISRDNAKNSLYLQMNSLRAEDTAVYYCARESPTYYDFWSGYSDYWGQGTLVTVSS
# VL: NFMLTQPHSVSESPGKTVTISCTRSSGSIASNYVQWYQQRPGSSPTTVIYEDNQRPSGVPDRFSGSIDSSSNSASLTISGLKTEDEADYYCQSYDSSNRVFGGGTKLTVL
# B5: 15.0.c800 (antibody, V domains shown)
# VH: EDQLLESGGGLVQPGGSLRLSCAVSGFTFSGYDLSWVRQAPGKGLEWVSIFSGSGGRKYYADSVKGRFTLSIDNSKNTLYLQMNSLRAEDTAVYYCAGDSSGYNNERMYYTYYMDVWGKGTTVTVSS
# VL: DIQMTQSPSSVSASVGDRVIITCRASQGISSWLAWYQQKPGKAPKLLIYAASSLQSGVPSRFSGSGSGTDFTLTISSLQPEDFATYYCQQANSFPLSFGGGTKVEIK
# B6: 15.0.c819 (antibody, V domains shown)
# VH: QVQLVESGGGVVQPGRSLRLSCAASGFTFSSYAMHWVRQAPGKGLEWVAVISYDGSNKYYADSVKGRFTISRDNSKNTLYLQMNSLRAEDTAVYYCARDLLWFGELLFREYYMDVWGKGTTVTVSS
# VL: not shown
# B7: 15.0.c830 (antibody, V domains shown)
# VH: EEQLLESGGGLVQPGGSLRLSCTVSGFTFSGYDMSWVRQAPGKGLEWVSLLSASGGGKYYADSVRGRFTISRDNSKNTMYLEMNSLRADDTAIYYCATDSSGYNYERLYYTYYMDVWGRGTTVSVSS
# VL: B5 VL with I20T, S31V, Y49H, T72S, S97T
# B8: 15.0.c835 (antibody, V domains shown)
# VH: not shown
# VL: DIQLTQSPSFLSASVGDRVTITCRASQGISSYLAWYQQKPGKAPKLLIYAASTLQSGVPSRFSGSGSGTEFTLTISSLQPEDFATYYCQQLNSYGYTFGQGTKLEIK
# B9: 15.0.c846 (antibody, V domains shown)
# VH: EVQLVESGGGLVQPGGSLRLSCAASGFTFSSYWMSWVRQAPGKGLEWVANIKQDGSEKYYVDSVKGRFTISRDNAKNSLYLQMNSLRAEDTAVYYCARTRDSSSSFYYYYYMDVWGKGTTVTVSS
# VL: not shown
# B10: 15.0.c865 (antibody, V domains shown)
# VH: EVQLVESGGSVVRPGGSLRLSCAASVFTFENYGMSWVRQTPGKGLEWVSSINWNGANTGYADSVKGRFTVSRDNAKNSLYLQMNSLRAEDTALYYCARHRYDSSGQWYFDYWGQGTLVTVSS
# VL: SYELTQPPSVSVSPGQTARITCSGDALPKKYAYWYQQKPGQAPVLVIYEDSKRPSGIPERFSGSRSGTMATLTISGAQVADEADYYCYSPDSSGNHRIFGTGTKVTVL
# B11: 15.0.c912 (antibody, V domains shown)
# VH: QVQLQESGPGLVKPSQTLSLTCTVSGGSISSGGYYWNWVRQHPGKGLEWIGYISYSGSTFYSGSTYYNPSLKSRITISLDTSKNQFSLNLSSVTAADTAVYYCARDRGDPGGYYNYGMDVWGQGTTVTVSS
# VL: QSVLTQPPSASGTPGQRVTISCSGSSSNIGSHYVYWYQQLSGTAPKLLIYRNNERPSGVPDRFSGSKSGTSASLAISGLRSEDEADYYCATWDDSQRVFGGGTKLTVL
# B12: 15.0.c942 (antibody, V domains shown)
# VH: EVQLVESGGGVVRPGGSLRLTCAASGFIFENYGMSWVRQAPGKGLEWVSALNWNGVNTYYSDSVKGRFTISRDNAKNSLYLQMNSLSAEDTAFYYCAVHYYDSSGIYYLDDWGQGTLVTVSS
# VL: QSVLTQPPSVSAAPGQKVSISCSGSSSNIGKNYVYWYQHVPGAAPKLLIYENDKRPSGIPDRFSGSKSGTSATLDITGLQTGDEAEYYCATWQSGLSAHVVFGGGTKLTVL
# B13: 5.6.c2647 (antibody, V domains shown)
# VH: QDQLVQSGAEVKKPGASVKVSCKASGYSFTGHYIHWVRRAPGRGLEWMGWINPDSGGTNYAQKFQGWVSMTRDTSISTAYMELSSLKSDDTAVYYCARGITMICDLWGQGTQVTVSS
# VL: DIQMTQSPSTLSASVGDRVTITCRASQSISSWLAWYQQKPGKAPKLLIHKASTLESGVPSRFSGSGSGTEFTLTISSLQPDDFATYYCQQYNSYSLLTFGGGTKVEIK
# B14: 5.6.c3010 (antibody, V domains shown)
# VH: EVQLVESGGGLVQPGGSLRLSCAASGLTVSSNYMNWVRQAPGKGLEWVSVIYSGGRTYYADSVKGRFTISRDISKNTVYLEMNSLRADDTAVYYCARIYFFYNGMDVWGQGTTVTVSP
# VL: EILLTQSPGTLSLSPGERATLSCRASQSVSSNYLAWFQQKPGQAPRLLIYGASSRATGIPDRFSGSGSGTDFTLTISRLEPEDFALYYCQQYGSSPPWTFGQGTKVEMK
# B15: 5.6.c3387 (antibody, V domains shown)
# VH: QLQLQESGPRLVKPSETLSLTCTVSGGSINRNSYYWGWIRQPPGKGLEWIGTIYYSGSPYYNPSLKSRVTISVDTSKNQFSLKLDSVTAADTALYFCASLWGWNDVGWFDSWGQGTLVTVSS
# VL: EIVLTQSPGTLSLSPGERATLSCRASQSVSSGYLAWYQQKPGQAPRLLIYGASIRAAGIPDRFSGSGSGTDFTLTISRLEPEDFAVYFCQQYGTSPLTFGPGTTVDIK
# B16: 5.6.c4172 (antibody, V domains shown)
# VH: QVQLQESGPGLVKPSGTLSLTCAVSGGSISSHYWWSWVRQSPGKGLEWLGEIYQIGSTNYNPSLKSRVSMSVDESKNQFSLSLTSVTAADTAVYYCARDQGHWNPGKGAFDIWGQGALVTVSS
# VL: QSVLTQPPSVSAAPGQRVTISCSGSNSNIGKNFVSWYQQFPGTAPKLLIYDNDKRPSGIPDRFSGSKSGTSATLGITGLQTGDEADYFCATWDTTLSAWVFGGGTKVTVL
# B17: 9.1.c1410 (antibody, V domains shown)
# VH: EVQLVESGGGLVKPGGSLRLSCAASGFTFSSYSMNWVRQAPGKGLEWVSSISSSSSYIYYADSVKGRFTISRDNAKNSLYLQMNSLRAEDTAVYYCARDLSEYQLLLSYFDYWGQGTLVTVSS
# VL: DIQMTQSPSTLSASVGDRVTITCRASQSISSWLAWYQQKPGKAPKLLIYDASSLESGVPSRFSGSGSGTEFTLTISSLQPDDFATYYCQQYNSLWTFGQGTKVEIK
# B18: 9.1.c1426 (antibody, V domains shown)
# VH: QVQLQESGPGLVKPSQTLSLTCTVSGGSISSGDYYWSWIRQPPGKGLEWIGYIYYSGSTYYNPSLKSRVTISVDTSKNQFSLKLSSVTAADTAVYYCARGYSSGWYLAYFQHWGQGTLVTVSS
# VL: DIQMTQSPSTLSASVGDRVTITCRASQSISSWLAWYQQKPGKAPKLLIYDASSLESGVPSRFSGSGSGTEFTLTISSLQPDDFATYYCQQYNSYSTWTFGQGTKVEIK
# B19: 5.6.c2617 (antibody, V domains shown)
# VH: EVQLVESGGGLVQPGGSLRLSCVASGFTFSSYEMDWVRQAPGKGLEWVSYIGSSGSTIYYADSVKGRFTISRDNAKNSLYLQMNSLRAEDTAVYYCARDTETTGLYYYGMDVWGQGTTVTVSA
# VL: B5 VL with I20T, S31R, A50G, A51T, L96F, S97T, G100P, K103R, E105D
# B20: 5.6.c2875 (antibody, V domains shown)
# VH: EVQLVESGGGVVQPGGSLRLSCAASGFTLRNFDMHWVRQVTGKGLEWVSGIGTAGDTYYPDSVKGRFTISRENAKNSLYLQMNSLRAEDTAVYYCARARWLQFDNWGQGALVTVSS
# VL: EIVLTQSPGTLSLSPGERATLSCKASQRVTSNFLAWYQQTPGQAPRLLIYSASSRATGIPDRFSGSGSGTDFTLTISRLEPEDFAVYYCQQYRSSRYTFGQGTKLEIK
# B21: 5.6.c2902 (antibody, V domains shown)
# VH: QVQLQESGPGLVKPSQTLSLTCTVSGASINSRDSYWSWIRQPPGKGLEWIGYIYYSGSTYSNPSLKSRVTMSVDTSKNQISLQLSSVTAADTAVYYCARVEGNEILFSLWYFDIWGRGTPVSVSS
# VL: QSVLTQPPSVSAAPGQKVTISCSGSSSNIGNNYVSWYQQLPGTAPKLLIYDNNKRPSGIPDRFSGSKSGTSATLGITGLQTGDEADYYCGSWDSSLSAGHWVFGGGTKLTVL
# B22: 5.6.c3169 (antibody, V domains shown)
# VH: QVQLVQSGTEVKKPGASVRVSCKSSGYTFTNYGINWVRQAPGQGLEWLGWISTYNDNINYAQKFQGRVTMTTDTSTSTAYMELRSLRSDDTAIYYCAKDSSAYWDLLFYGMDVWGQGTTVTVSS
# VL: B8 VL with L11V, Y32S, K45N, T53A, E70D, Y87F, G95P
# B23: 5.6.c3242 (antibody, V domains shown)
# VH: QVQLQESGPGLVKPSATLSLTCTVSGGSISSDHWSWIRQPPGKGLEWIGHVIYSGSTNYIPSLKSRVTISIDTSKNQFSLKLRSVTAADTAVYYCARGGGWYDNWFDPWGQGTLVTVSS
# VL: QSALTQPASVSGSPGQSIIISCTGTSNDVGSYNLVSWYQQHPGKAPKLMIYEGNKRPSGVSNRFSGSKSGNAASLKISGLQSEDEAEYYCCSYAGSGTWVFGGGTKLTVL
# Molecular target: T1, thermolysin-cleaved EBOV GP on …
row,Binder,binding result
1,B1,binds
2,B2,binds
3,B3,binds
4,B4,binds
5,B5,binds
6,B6,binds
7,B7,binds
8,B8,binds
9,B9,binds
10,B10,binds
11,B11,binds
12,B12,binds
13,B13,binds
14,B14,binds
15,B15,binds
16,B16,binds
17,B17,binds
18,B18,binds

# Molecular target: EBOV GP ectodomain residues 1-636 (GPec) (Zaire ebolavirus, strain  …, UniProt Q05320)
row,Binder,binding result
1,B19,binds
2,B20,binds
3,B21,binds
4,B22,binds
5,B23,binds
